Data: patent US20240132580A1 (DOTBIO PTE, published 2024)

B1: 21A1.1 (VHH)
VHH: EVQLVESGGGLVQPGGSLRLSCAISGFALATTDIDWVRQAPGKGLEWVARIFNPSDFTDYADSVKGRFTISADTSKNTVYLQMNSLRAEDTAVYYCGRPAVYGYNIFLDSPTYDASQYRGQGTLVTVSS
notes: Autonomous humanised VH domain (DotBody), from the 16C2.1-based library with heat challenge; E. coli, ATG codon 5' (possible initiator Met), 3' hexahistidine tag; also called DotBody 21A1.1
B2: 13A6 (VHH)
VHH: EVQLVESGGGLVQPGGSLRLSCAISGFSLAATDIDWVRQAPGKGLEWVARIFPSAGSTDYADSVKGRFTISADTSKNTVYLQMNSLRAEDTAVYYCGRSDSYSYNVFLHNPTYTALDYRGQGTLVTVSS
notes: Autonomous humanised VH domain (DotBody); also called anti-VEGF DotBody 13A6; clone 13A6
B3: 16A2.1 (VHH)
VHH: EVQLVESGGGLVQPGGSLRLSCAISGFALAETDIDWVRQAPGKGLEWVARIFSSGGNTDYADSVKGRFTISADTSKNTVYLQMNSLRAEDTAVYYCGRSDSIAYNVILPNSTYTARDYRGQGTLVTVSS
notes: E. coli, ATG codon 5' (possible initiator Met), 3' hexahistidine tag; also called anti-VEGF DotBody 16A2.1; clone 16A2.1
B4: 16A6.1 (VHH)
VHH: EVQLVESGGGLVQPGGSLRLSCAISGFSLAATDIDWVRQAPGKGLEWVARIFPFSGSTDYTDSVKGRFTISADTSKNTVYLQMNSLRAEDTAVYYCGRSDSYSYNVFLHDPAYTALDYRGQGTLVTVSS
notes: E. coli, ATG codon 5' (possible initiator Met), 3' hexahistidine tag; also called clone 16A6.1
B5: 16A2.1x2 (VHH)
chain: SEVQLVESGGGLVQPGGSLRLSCAISGFALAETDIDWVRQAPGKGLEWVARIFSSGGNTDYADSVKGRFTISADTSKNTVYLQMNSLRAEDTAVYYCGRSDSIAYNVILPNSTYTARDYRGQGTLVTVSSGGGGSGGGGSGGGGSGGGGSGGGGSGGGGSGGGGSEVQLVESGGGLVQPGGSLRLSCAISGFALAETDIDWVRQAPGKGLEWVARIFSSGGNTDYADSVKGRFTISADTSKNTVYLQMNSLRAEDTAVYYCGRSDSIAYNVILPNSTYTARDYRGQGTLVTVSSHHHHHH
notes: Tandem of two 16A2.1 VH domains in one chain; 'produced in the same way' as the single clones (E. coli, ATG codon 5', 3' hexahistidine tag); also called bivalent molecule 16A2.1x2; bivalent 16A2.1x2 molecule
B6: 23D5.1 (VHH)
VHH: EVQLVESGGGLVQPGGSLRLSCAISGFDLATTDIDWVRQAPGKGLEWVARIFRPSDFTDYADSVKGRFTISADTSKNTVYLQMNSLRAEDTAVYYCVRPDSYAYNILFVTRTFNALHYRGQGTLVTVSS
notes: Autonomous humanised VH domain (DotBody), from the 16C2.1-based library without heat challenge; E. coli, ATG codon 5' (possible initiator Met), 3' hexahistidine tag; also called DotBody 23D5.1
B7: 21E6.1 (VHH)
VHH: EVQLVESGGGLVQPGGSLRLSCAISGFTLAATDIDWVRQAPGKGLEWVARIFTPTGFSDYADSVKGRFTISADTSKNTVYLQMNSLRAEDTAVYYCGIPELYAYNIFMDIPAYNDVYYRGQGTLVTVSS
notes: Autonomous humanised VH domain (DotBody), from the 16C2.1-based library with heat challenge; E. coli, ATG codon 5' (possible initiator Met), 3' hexahistidine tag; also called DotBody 21E6.1
B8: 21A8.1 (VHH)
VHH: EVQLVESGGGLVQPGGSLRLSCAISGFSVDATDIDWVRQAPGKGLEWVARIFSPSGFTDYADSVKGRFTISADTSKNTVYLQMNSLRAEDTAVYYCDRPEFYAYNIFHDPRTVPAGNYRGQGTLVTVSS
notes: Autonomous humanised VH domain (DotBody), from the 16C2.1-based library with heat challenge; E. coli, ATG codon 5' (possible initiator Met), 3' hexahistidine tag; also called DotBody 21A8.1
B9: 21D9.1 (VHH)
VHH: EVQLVESGGGLVQPGGSLRLSCAISGFSLGATDIDWVRQAPGKGLEWVARIFSPSDFTDYADSVKGRFTISADTSKNTVYLQMNSLRAEDTAVYYCSRPDTYAYNIFPHTASHGAFNYRGQGTLVTVSS
notes: Autonomous humanised VH domain (DotBody), from the 16C2.1-based library with heat challenge; E. coli, ATG codon 5' (possible initiator Met), 3' hexahistidine tag; also called DotBody 21D9.1
B10: 20A3.1 (VHH)
VHH: EVQLVESGGGLVQPGGSLRLSCAISGFSLADTDIDWVRQAPGKGLEWVARIFSSSGSTYYADSVKGRFTISADTSKNTVYLQMNSLRAEDTAVYYCDRADSVGYNVIFPGSTYSRSGYRGQGTLVTVSS
notes: Autonomous humanised VH domain (DotBody), from the 16A2.1-based library with heat challenge; E. coli, ATG codon 5' (possible initiator Met), 3' hexahistidine tag; also called DotBody 20A3.1
B11: 20A2.1 (VHH)
VHH: EVQLVESGGGLVQPGGSLRLSCAISGFPLADTDIDWVRQAPGKGLEWVARIFSSYGSTDYADSVKGRFTISADTSKNTVYLQMNSLRAEDTAVYYCGRSDSIAYNIILPASTYSSRDYRGQGTLVTVSS
notes: Autonomous humanised VH domain (DotBody), from the 16A2.1-based library with heat challenge; E. coli, ATG codon 5' (possible initiator Met), 3' hexahistidine tag; also called DotBody 20A2.1

Key:
[1] = target: T1, Human VEGF-121 (Acro Biosystems) (human, UniProt P15692 207-395); test: competitive ELISA, inhibition of VEGF-121 (0.5 nM) binding to coated VEGFR1 (FIG. 5)
T1 construct: Bought protein; also called human VEGFA
T1 sequence: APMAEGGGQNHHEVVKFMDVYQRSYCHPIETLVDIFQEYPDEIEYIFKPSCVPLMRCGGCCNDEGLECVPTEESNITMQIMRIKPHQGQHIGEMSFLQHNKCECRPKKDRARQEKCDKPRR
Procedure: (§1) To perform the competitive ELISA, the VEGFR1 was immobilized at a concentration of 2 μg/mL onto a Maxisorp 96-well plate (Thermo Scientific) overnight at 4° C., washed three times with PBS and blocked for 1 h at RT with ELISA Block Buffer (EBB: 0.2% BSA in PBST). […] The samples were incubated for 2 h at RT, and 50 μL transferred onto the VEGFR1-coated plate. After 2 h incubation, the plate was washed 3 times with PBST. 50 μL of streptavidin-HRP conjugate (Thermo Scientific) was added at a 1:5,000 dilution in EBB, and incubated for 1 h at RT. The plate was washed 5 times with PBST, and developed with 50 μL 3,3′,5,5′-Tetramethylbenzidine (TMB) substrate (GeneTex). After 5-15 min, the reactions were stopped by adding 50 μL of 2M H₂SO₄, and signal was measured at an absorbance of 450 nm.

[2] = target: T2, Biotinylated murine VEGF-164 (Acro Biosystem) (mouse, UniProt Q00731-2 27-190, biotinylated (site not stated)); test: BLI, biotinylated antigen on streptavidin tips, 1:1 global fit
T2 construct: Bought protein; also called Mouse VEGF164; mouse VEGFA
T2 sequence (looked up): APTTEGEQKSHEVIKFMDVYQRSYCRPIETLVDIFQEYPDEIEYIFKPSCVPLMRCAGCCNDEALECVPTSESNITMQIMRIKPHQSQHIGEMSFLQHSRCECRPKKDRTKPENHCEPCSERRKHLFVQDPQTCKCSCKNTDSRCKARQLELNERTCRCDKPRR
Procedure: (§2) Binding characterization was performed using BLI (Satorius) at RT with a 1000 rpm flow-rate. Biotinylated human VEGF-165 (Acro Biosystem) was immobilized onto Streptavidin-coated tips at a concentration of 3 μg/mL for 60 sec in BLI buffer (0.1% BSA and 0.01% Tween-20 in PBS). After a 30 sec baseline, anti-VEGFA DotBodies were associated at 8 different concentrations, including a blank reference, in BLI buffer for 60 sec, followed by a 400 sec dissociation in BLI buffer. The background buffer signal was subtracted using the 0 nM concentration reference, and the kinetics of binding were calculated using a global fit following a 1:1 binding model, using BLI Analysis Software. The bivalent molecule 16A2.1x2 was also characterized as described here, but with a 600 sec dissociation. To characterize the binding of all the clones against murine VEGFA, the same procedure was employed, but the immobilized target was replaced with biotinylated murine VEGF-164 (Acro Biosystem).

[3] = target: T3, Biotinylated human VEGF-165 (Acro Biosystem) (human, UniProt P15692 207-395, biotinylated (site not stated)); test: as above
T3 construct: Bought protein; also called human VEGFA
Procedure: as §2

[4] = target: T1, Human VEGF-121 (Acro Biosystems); test: competitive ELISA, inhibition of VEGF-121 (0.5 nM) binding to coated VEGFR1 (FIG. 4)
Procedure: as §1

[5] = target: T3, Biotinylated human VEGF-165 (Acro …); test: not stated at this place (BLI in Example 10)
Procedure: as §2

[6] = target: T3, Biotinylated human VEGF-165 (Acro …); test: BLI, biotinylated antigen on streptavidin tips, 600 sec dissociation, 1:1 global fit
Procedure: as §2

Row | IC50 [1] | Kd [2] | koff [2] | kon [2] | Kd [3] | koff [3] | kon [3] | IC50 [4] | Kd [5] | Kd [6] | koff [6] | kon [6] | Binder
1 | 0.9 nM | 13.8 nM | 0.00231 s⁻¹ | 167000 M⁻¹ s⁻¹ | 11.3 nM | 0.00103 s⁻¹ | 91500 M⁻¹ s⁻¹ | – | – | – | – | – | B1
2 | – | 248 nM | 0.0104 s⁻¹ | 41900 M⁻¹ s⁻¹ | 38.9 nM | 0.00475 s⁻¹ | 122000 M⁻¹ s⁻¹ | 5900 nM | – | – | – | – | B2
3 | 3 nM | 16.6 nM | 0.00193 s⁻¹ | 116000 M⁻¹ s⁻¹ | 2.5 nM | 0.000986 s⁻¹ | 394000 M⁻¹ s⁻¹ | 12.2 nM | < 5 nM | – | – | – | B3
4 | – | 18.4 nM | 0.00225 s⁻¹ | 122000 M⁻¹ s⁻¹ | 14.7 nM | 0.00136 s⁻¹ | 92400 M⁻¹ s⁻¹ | 41.4 nM | – | – | – | – | B4
5 | – | – | – | – | – | – | – | – | – | 0.301 nM | 0.000128 s⁻¹ | 426000 M⁻¹ s⁻¹ | B5
6 | 1.4 nM | 8.34 nM | 0.00169 s⁻¹ | 205000 M⁻¹ s⁻¹ | 2.8 nM | 0.000802 s⁻¹ | 286000 M⁻¹ s⁻¹ | – | – | – | – | – | B6
7 | 7.5 nM | 14.2 nM | 0.00117 s⁻¹ | 82800 M⁻¹ s⁻¹ | 6.3 nM | 0.000442 s⁻¹ | 69600 M⁻¹ s⁻¹ | – | – | – | – | – | B7
8 | 1.8 nM | 46.1 nM | 0.00292 s⁻¹ | 63400 M⁻¹ s⁻¹ | 20 nM | 0.00118 s⁻¹ | 58000 M⁻¹ s⁻¹ | – | – | – | – | – | B8
9 | 1 nM | 41.7 nM | 0.00243 s⁻¹ | 58000 M⁻¹ s⁻¹ | 20.5 nM | 0.00099 s⁻¹ | 48200 M⁻¹ s⁻¹ | – | – | – | – | – | B9
10 | 0.9 nM | 8.7 nM | 0.000889 s⁻¹ | 102000 M⁻¹ s⁻¹ | 2.78 nM | 0.000725 s⁻¹ | 260000 M⁻¹ s⁻¹ | – | – | – | – | – | B10
11 | 1.6 nM | 10.2 nM | 0.00135 s⁻¹ | 132000 M⁻¹ s⁻¹ | 5.54 nM | 0.00055 s⁻¹ | 97700 M⁻¹ s⁻¹ | – | – | – | – | – | B11
